Article PMC2894447

B1: APC-B-ΔN4 (domain or fragment)
chain: ASTKSSGSGKMSYTSPGRQMSQQNLTKQTGLSKNASSIPRSESASKGLNQMNNGNGANKKVELSRMSSTKSSGSESDRSERPVLVRQSTFIKEAPSPTLRRKLEESASFESLSPSSRPASPTRSQAQTPVLSPSLPDMSLSTHSSVQAGGWRKLPPNLSPTIEYNDGRPAKRHDIARSHSESPSRLPINRSGTWKREHSKHSSSLPRVSTWRRTGSSSSILSASSESSEKAKSEDEKHVNSISGTKQSKENQVSAKGTWRKIKENEFSPTNSTSQTVSSGATNGAESKTLIYQMAPAVSKTEDVWVRIEDCPINNPRSGRS
modifications: not checked

Tests used:
[1] = target: Rabbit skeletal muscle actin, monomeric (G-actin), 100% pyrene labeled (rabbit) (UniProt P68135); experiment: other fluorescence titration
APC-B-ΔN4 = experiment: SEC + other: sucrose gradient sedimentation velocity

| Molecule | Kd [1] [nM] | stoichiometry N (APC-B-ΔN4) |
| --- | --- | --- |
| APC-B, the C-terminal Basic domain of adenomatous polyposis coli protein (domain or fragment) | 17.3 |  |
| B1 |  | 1.97 |
